Laboratory results as given in patent publication US20190137501.

Target: epidermal growth factor receptor (EGFR)

B1: protein-tyrosine phosphatase 1b (PTP1b) (protein)
chain: MEMEKEFEQIDKSGSWAAIYQDIRHEASDFPCRVAKLPKNKNRNRYRDVSPFDHSRIKLHQEDNDYINASLIKMEEAQRSYILTQGPLPNTCGHFWEMVWEQKSRGVVMLNRVMEKGSLKCAQYWPQKEEKEMIFEDTNLKLTLISEDIKSYYTVRQLELENLTTQETREILHFHYTTWPDFGVPESPASFLNFLFKVRESGSLSPEHGPVVVHCSAGIGRSGTFCLADTCLLLMDKRKDPSSVDIKKVLLEMRKFRMGLIQTADQLRFSYLAVIEGAKFIMGDSSVQDQWKELSHEDLEPPPEHIPPPPRPPKRILEPHNGKCREFFPNHQWVKEETQEDKDCPIKEEKGSPLNAAPYGIESMSQDTEVRSRVVGGSLRGAQAASPAKGEPSLPEKDEDHALSYWKPFLVNMCVATVLTAGAYLCYRFLFNSNT
- EGFR Y1173 phosphorylation (semi-quantitative Western blot): inhibition of PTP1b increased EGFR Y1173 phosphorylation in GFP control cells treated with 0.25 nM EGF
